Measured values as given in PMC8428864.

Molecular target: photosystem I from Cyanobacterium aponinum 0216 (one monomer of the trimer, 11 protein subunits) (Cyanobacterium aponinum 0216 (endogenous)) (UniProt K9Z0B2)
Experiment: cryo-EM structure; single-particle cryo-EM of the purified PSI trimer, C3 symmetry imposed; 30 mM Tricine–NaOH pH 8, 150 mM NaCl, 0.02% DDM; three monomers in the trimer

**Q.** Which stoichiometry N does the source give for “photosystem I from Cyanobacterium aponinum 0216 (one monomer of the trimer, 11 protein subunits) (from UniProt K9Z0B2 1-750; K9Z2J7 1-738; K9Z1N0 1-81; K9Z9J3 1-39; K9Z7Y0 1-163) (complex)” here?
**A.** 3
